Experimental findings from patent US9371393B2, “Class I anti-CEA antibodies and uses thereof” (Immunomedics, Inc., priority 2009, dated 2016) are described below.

One test concerns MDA-231 cells. The test can be described thus: Collagen-based invasion assay, MDA-231. Format: cell-based, human. The conditions noted are these: MDA-231, expresses neither antigen. As for the experimental part:
(§1) Collagen-based invasion assay—The assay was done using CHEMICON® Kit (#ECM551, MILLIPORE®, Billerica, Mass.). Tumor cells at 80% confluence and were serum-starved for 18 to 24 hours before the assay was used. Cells were harvested with 5 mol of 2 mmol/L EDTA/PBS per 100-mm dish and incubated at 37° C. for 5 to 15 minutes. Cells were collected into 10 to 20 mol of quenching medium (serum-free DMEM containing 5% BSA) to inactivate trypsin/EDTA from the harvesting buffer. Cells were pelleted, resuspended in quenching medium (1×10^6 cells/mol), and appropriate antibody Fabs were added to individual cell aliquots. Cell invasion potential was determined as follows. Baseline invasion and invasion in the presence of a chemoattractant (10% FBS) were measured after a 72-hour incubation period at 37° C. in a 5% CO2 incubator. The bottom side of the collagen-coated polycarbonate membrane insert of the invasion chamber was placed in 400 μL of cell stain for 20 minutes at room temperature and washed. The dye was extracted and transferred into a 96-well microtiter plate for colorimetric measurements (A560 nm).

The test system of test [1] is Moser binding to fibronectin. The test can be described thus: Adhesion to extracellular matrix proteins assay, Moser. Format: cell-based, human. As for the experimental part: Adhesion to extracellular matrix proteins assay—The assay was done using the CYTOMATRIX™ screening kit from CHEMICON® (Kit #ECM205, Temecula, Calif.). The kit contains 96-well plates with strips coated with fibronectin, vitronectin, laminin, collagen-I, or collagen-IV. Subconfluent cell cultures were used for these studies. Cells (1×10^6 cells/mol) were seeded onto coated substrate and incubated at 37° C. for 1 hour in a CO2 incubator in PBS containing Ca^2+/Mg^2+ (200 μL per well). Adherent cells were fixed and stained. The plate was washed to remove unadhered cells and stained with 100 μL per well of MTS (Cell Titer Aq 96, PROMEGA®, Madison, Wis.) for 5 minutes at room temperature. Excess stain was removed with three PBS washes. Solubilization buffer [100 μL of a 50:50 mixture of 0.1 mol/L NaH2PO4 (pH 4.5) and 50% ethanol] was added to each well. Relative attachment was determined using absorbance readings (A540 nm-A570 nm).

The next test relates to HT-29 cells. The test can be described thus: Spontaneous migration (wound-healing) assay, HT-29. Format: cell-based, human. Details: dose or concentration left out as unconfirmed. To be noted: antibody, 18 to 24 hours, untreated 14.9±9.1, n=10. The method, then: (§2) Spontaneous migration assay—Glass coverslips were placed in 100×15 mm Petri dishes and UV sterilized overnight. Suspensions of cancer cells (2-4×10^5 cells/mol) were prepared from 80% to 90% confluent monolayers. Cells were plated on each coverslip and incubated for 2 to 5 days to reach 70% to 80% confluence. Two diagonal cell-free paths (“wounds”) were created by dragging a sterile yellow pipette tip across the surface. Monolayers were rinsed several times to remove floating cells and 4 mol of fresh medium were added back in the absence or presence of antibody IgG or Fab′ (10 μg/mol) and incubated at 37° C. After 18 to 24 hours, the medium was removed and coverslips stained with 1 mol Wright-Giemsa for 1 minute. The stain was washed off with distilled water, air-dried, and mounted onto slides with Cytoseal 60. Repopulation of the wound space was evaluated by counting the number of cells that migrated into the wound area in 10 representative fields. Regions of migration were photographed for documentation.

In a further test the test system is LS174T cells. In words: Spontaneous migration (wound-healing) assay, LS174T. Also on record: dose or concentration left out as unconfirmed. Type of test: cell-based, human. To be noted: antibody, 18 to 24 hours, untreated 38.8±10.9. The method, then:
as §2

In the next test the target is T1, CEA (Homo sapiens, UniProt P06731).
T1 sequence (P06731 35-676): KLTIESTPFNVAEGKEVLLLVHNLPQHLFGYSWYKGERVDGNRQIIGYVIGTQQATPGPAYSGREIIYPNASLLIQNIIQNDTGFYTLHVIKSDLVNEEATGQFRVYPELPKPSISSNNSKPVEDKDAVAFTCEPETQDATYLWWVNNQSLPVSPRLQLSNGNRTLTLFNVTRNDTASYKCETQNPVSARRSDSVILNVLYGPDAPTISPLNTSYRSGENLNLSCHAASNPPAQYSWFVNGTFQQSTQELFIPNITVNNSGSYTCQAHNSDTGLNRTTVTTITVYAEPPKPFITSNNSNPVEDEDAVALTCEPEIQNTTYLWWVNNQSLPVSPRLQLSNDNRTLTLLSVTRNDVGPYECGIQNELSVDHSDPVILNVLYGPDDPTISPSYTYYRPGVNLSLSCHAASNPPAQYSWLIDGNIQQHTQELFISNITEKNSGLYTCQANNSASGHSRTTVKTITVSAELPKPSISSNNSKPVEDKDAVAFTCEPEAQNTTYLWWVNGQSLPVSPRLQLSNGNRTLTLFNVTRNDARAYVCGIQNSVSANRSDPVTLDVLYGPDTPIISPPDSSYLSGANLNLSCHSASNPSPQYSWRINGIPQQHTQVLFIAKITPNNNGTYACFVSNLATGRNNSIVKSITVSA
The test can be described thus: Competitive CEA binding against HRP-labeled murine MN-15. To be noted: competition with HRP-labeled murine MN-15. An excerpt:
To make a chimeric MN-15 antibody, the murine MN-15 variable region sequences were attached to human IgG1 constant region sequences, as described in Leung et al., Hybridoma 13:469 (1994). The sequences of the murine MN-15 VK (SEQ ID NO:9) and MN-15 VH (SEQ ID NO:10) used to construct the chimeric MN-15 (cMN-15) are shown in FIG. 2 and FIG. 3.

Another test relates to MCF-7 cells. The test can be described thus: Collagen-based invasion assay, MCF-7. Type of test: cell-based, human. The conditions noted are these: 10% FBS chemoattractant, 72-hour incubation. The method, then:
as §1

B1: MN-15: murine Class I anti-CEA MAb, IgG1 kappa, binds A1B1 domain of CEACAM5 and CEACAM6 (antibody, V domains shown)
VL: DIQLTQSPAIMSASPGEKVTMTCSASSRVSYIHWYQQKSGTSPKRWIYGTSTLASGVPARFSGSGSGTSYSLTISSMEAEDAATYYCQQWSYNPPTFGAGTKLELKR
VH: EVRLVESGGGLVQGPGSLRLSCAASGFALTDYYMSWVRQSPGKTLEWLGFIANKANGHTTDYSPSVKGRFTISRDNSQTILYLQMNTLRTEDSATYYCARDMGIRWNFDVWGQGTTVTVSS
As to B1, the effect on invasion entry in the test on MDA-231 cells is reported as “not reduced”. In addition, in test [1], the “effect on binding to fibronectin” value is given as “not affecting the binding”. For the same molecule, the “number of migrating cells per field” value with HT-29 cells is on record as 5.5±1.8 cells. Further, the “migrating cells per field” value with LS174T cells is given as 20.3±0.1 cells. Further, in the test with CEA, the dissociation constant result is given as “nanomolar range”.

B2: MN-15 Fab′: monovalent Fab′ fragment of murine MN-15 (antibody, V domains shown)
VL: DIQLTQSPAIMSASPGEKVTMTCSASSRVSYIHWYQQKSGTSPKRWIYGTSTLASGVPARFSGSGSGTSYSLTISSMEAEDAATYYCQQWSYNPPTFGAGTKLELKR
VH: EVRLVESGGGLVQGPGSLRLSCAASGFALTDYYMSWVRQSPGKTLEWLGFIANKANGHTTDYSPSVKGRFTISRDNSQTILYLQMNTLRTEDSATYYCARDMGIRWNFDVWGQGTTVTVSS
For the molecule B2, in the test with MDA-231 cells, the effect on invasion entry is “not reduced”. The “reduction in cell invasion” value in the test on MCF-7 cells is listed as 77%. The “number of migrating cells per field” value with HT-29 cells is listed as 5.4±0.8 cells. Moreover, the “migrating cells per field” value in the test on LS174T cells came out at 21.6±1.2 cells.
